In patent publication US20240366775A1, “HUMAN TRANSFERRIN RECEPTOR BINDING ANTIBODY-PEPTIDE CONJUGATE” (PEPTIDREAM INC., priority 2021, published 2024) one finds KD data, which are given here for one molecule.

This assay deals with human transferrin receptor (hTfR) (human), P02786. The assay is described as follows: SPR of naked peptide on hTfR; B = KD between 1 nM and 100 nM.
Chain of human transferrin receptor (hTfR) (human), P02786 (P02786 89-760 limits assumed): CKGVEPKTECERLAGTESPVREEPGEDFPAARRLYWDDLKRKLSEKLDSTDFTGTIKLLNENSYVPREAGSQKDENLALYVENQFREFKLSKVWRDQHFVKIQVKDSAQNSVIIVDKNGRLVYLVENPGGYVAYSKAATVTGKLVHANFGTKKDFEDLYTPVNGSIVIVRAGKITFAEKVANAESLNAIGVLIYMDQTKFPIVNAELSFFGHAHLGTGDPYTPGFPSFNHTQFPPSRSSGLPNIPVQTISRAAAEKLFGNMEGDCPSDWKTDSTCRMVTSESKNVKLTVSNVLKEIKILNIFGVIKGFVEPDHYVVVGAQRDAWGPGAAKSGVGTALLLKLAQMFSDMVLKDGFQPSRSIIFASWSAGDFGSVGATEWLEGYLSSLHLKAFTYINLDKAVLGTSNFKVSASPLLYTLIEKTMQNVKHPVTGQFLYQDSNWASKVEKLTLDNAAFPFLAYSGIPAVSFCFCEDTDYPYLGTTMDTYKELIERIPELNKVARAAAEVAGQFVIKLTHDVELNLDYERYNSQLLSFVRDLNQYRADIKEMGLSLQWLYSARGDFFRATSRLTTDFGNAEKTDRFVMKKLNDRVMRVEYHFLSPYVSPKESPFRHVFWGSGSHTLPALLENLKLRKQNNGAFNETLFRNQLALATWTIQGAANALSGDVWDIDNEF

B1: naked peptide (1st to 12th amino acids) of SEQ ID NO: 14, peptide 36 (peptide)
chain: AVFVWNYYIISC
modifications: not checked
Take B1: the KD (commonly the equilibrium constant for the complex coming apart) lay in the range of 1 to 100 nM.
